Assay results reported in patent US6015560, “Antibody recognizing endothelial cell ligand for leukocyte CR3” (The Rockfeller University, dated 2000).

How the values were obtained:
[1] = biological target: T1, integrin complement receptor 3 (CR3) on human leukocytes (human, UniProt P11215); experiment: macrophages spread on peptide-coated wells; residual CD11b/CD18 detected with C3bi-coated erythrocytes
[2] = biological target: T1, integrin complement receptor 3 (CR3) on …; experiment: cell-based or functional assay

| Binder | binding result [1] | inhibition of adherence of human neutrophils to cultured endothelial cells [2] |
| --- | --- | --- |
| RADPHQGVLAQGDIIMDAKG [FHA peptide Cb] | no binding (tested: wells coated with 0.5 mM peptide) |  |
| RGDPHQGVLAQGDIIMDAKGGTLLLRNDALTENGTVTISADSAVL [FHA peptide C] |  | 62% |
| FHA peptide G (peptide) peptide: IVVEAGELVSHAGGIGNGRNKENGASVTVRTTGNLVNKGYISAGKQGVLEVGGAL |  | < 15% |
| IGALKAGAVEAASPRRAARRALRQDFFTPGSVVVRAQGNYTVGRGD [FHA peptide A] |  | < 15% |
| AKKLFLNGTLRAVNDNNETMSGRQIDVVDGRPQITDAVTGEARKD [FHA peptide E] |  | < 15% |
| LEHSTIESKISQSVLAAKGDKGKPAVSVKVAKKLFLNGTLRAVND [FHA peptide D] |  | < 15% |
| AADPHQGVLAQGDIIMDAKG [FHA peptide Cc] | no binding (tested: wells coated with 0.5 mM peptide) |  |
| GTLLLRNDALTENGTVTISA [FHA peptide Cd] | no binding (tested: wells coated with 0.5 mM peptide) |  |
| RPQITDAVTGEARKDESVVSDAALVADGGPIVVEAGELVSHAGGI [FHA peptide F] |  | < 15% |
| RQDFFTPGSVVVRAQGNVTVGRGDPHQGVLAQGDIIMDAKGGTLL [FHA peptide B] |  | 29% |
